Source: publication PMC4497409

B1: Biotinylated human Norrin wild-type (pHL-Avitag3 construct) [modified: biotin on the C-terminal BirA recognition sequence (in vivo biotinylation); biotin on the C-terminal BirA recognition sequence (in vivo biotinylation)] (parent)
chain 1: KTDSSFIMDSDPRRCMRHHYVDSISHPLYKCSSKMVLLARCEGHCSQASRSEPLVSFSTVLKQPFRSSCHCCRPQTSKLKALRLRCSGGMRLTATYRYILSCHCEECNS
chain 2: ERRCDPIRISMCQNLGYNVTKMPNLVGHELQTDAELQLTTFTPLIQYGCSSQLQFFLCSVYVPMCTEKINIPIGPCGGMCLSVKRRCEPVLKEFGFAWPESLNCSKFPPQNDHNHMCMEGPGDEEVPLPHKTPIQPGE

Variants of: B1
Experiment: SPR
Conditions: with Frizzled4 cysteine-rich domain (Fz4CRD), Norrin mutant immobilized on CM5 chip, Fz4CRD as analyte, 1:1 Langmuir binding model

Variant | screen value (Surface: 325 RU (WT surface in panel A: 336 RU)) | Kd (Surface: 325 RU) | screen value (Surface: 435 RU (WT surface in panel A: 336 RU)) | Kd (Surface: 435 RU)
chain 1 L28N K30S | 122 RU | 1.25 µM |  | 
chain 1 M90N L92S |  |  | 78 RU | 1.06 µM
